Assay results published in patent US20230050056A1, “METHOD FOR SCREENING PORE-FORMING MEMBRANE PROTEINS, MEMBRANE TR[…] MOLECULAR SWITCHES” (TECHNISCHE UNIVERSITÄT DARMSTADT, priority 2019, published 2023).
Positions count from the first letter of the chain named.

B1: S^21-71 M4A (protein)
chain: MKSADKISTGIAYGTSAGSAGYWFLQWLDQVSPSQWAAIGVLGSLVLGFLTYLTNLYFKIREDRRKAARGE
modifications: Mutant of S21-71 anti-pinholin of bacteriophage P21
B2: Clone P15D3 (protein)
chain: B1 chain with K2D, S3W, A4D
modifications: Mutant of S21-71 anti-pinholin of bacteriophage P21
B3: Clone P14E5 (protein)
chain: B1 chain with K2Y, S3L, A4E
modifications: Mutant of S21-71 anti-pinholin of bacteriophage P21
B4: Clone P7D10 (protein)
chain: B1 chain with K2A, S3G, A4W
modifications: Mutant of S21-71 anti-pinholin of bacteriophage P21
B5: Clone P14C11 (protein)
chain: B1 chain with K2N, S3F, A4E
modifications: Mutant of S21-71 anti-pinholin of bacteriophage P21
B6: Clone P3E5 (protein)
chain: B1 chain with K2F, S3Q, A4W
modifications: Mutant of S21-71 anti-pinholin of bacteriophage P21
B7: Clone P3G3 (protein)
chain: B1 chain with K2W, S3R, A4G
modifications: Mutant of S21-71 anti-pinholin of bacteriophage P21
B8: S^21-68: Wild-type of the S^21-68 pinholin of bacteriophage P21 with pronounced and defined pore-forming properties (protein)
chain: MDKISTGIAYGTSAGSAGYWFLQWLDQVSPSQWAAIGVLGSLVLGFLTYLTNLYFKIREDRRKAARGE
modifications: Bacteriophage P21
B9: T4 holin Wild-type: Wild-type of the T4 pinholin of bacteriophage T4 with highly pronounced pore-forming properties (protein)
chain: MAAPRISFSPSDILFGVLDRLFKDNATGKVLASRVAVVILLFIMAIVWYRGDSFFEYYKQSKYETYSEIIEKERTARFESVALEQLQIVHISSEADFSAVYSFRPKNLNYFVDIIAYEGKLPSTISEKSLGGYPVDKTMDEYTVHLNGRHYYSNLKFAFLPTKKPTPEINYMYSCPYFNLDNIYAGTITMYWYRNDHISNDRLESICAQAARILGRAK
modifications: Bacteriophage T4
B10: S^107-M3A (protein)
chain: MKAPEKHDLLAAILAAKEQGIGAILAFAMAYLRGRYNGGAFTKTVIDATMCAIIAWFIRDLLDFAGLSSNLAYITSVFIGYIGTDSIGSLIKRFAAKKAGVEDGRNQ
modifications: Mutant of S107 anti-pinholin of bacteriophage lambda

Experiments:
[1] = system: inner membrane of E. coli; type: cell-based, E. coli BL21(DE3)
[2] = system: inner membrane of E. coli; assay: G-GECO1 fluorescence screening of the 3xNNK S2168 pinholin library in microtiter plates (Example 12); conditions: for Comment: effect on pore formation: measured at the half-maximum time c, N-terminal variants of S21-71; for Slope [d]: sigmoid fit with equation 1 (high d = low slope), G-GECO1; for Slope [d] / Half-maximum time [c]: pCTRL2.T7.100.sRBS library; for Half-maximum time [c]: sigmoid fit with equation 1, G-GECO1, 0.5 mM IPTG
Procedure: Colonies of BL21(DE3) on LB agar from 3. were picked and cultivated in deep well plates with 300 μl of LB medium with the necessary antibiotics overnight for about 16 h at 37° C. and 1300 rpm.
After cultivating individual clones from 4. overnight, the OD600 of the precultures in microtiter plates was adjusted to 0.1, and the samples, 200 μL each, were shaken at 37° C. and 180 rpm for 30 min. Within the framework of the pCTRL2-^3×NNKS^2168 library, 271 clones were thus picked. Within the framework of the pCTRL2.T7.100.sRBS-^3×NNKS^2168 library, 576 clones were picked.
Subsequently, all nanopore variants were then induced with 0.5 mM IPTG, and the fluorescence was measured over another 190 min.
General information: The measurement in the reader is carried out at 30° C. every 3 min. The plate is shaken at 180 rpm between the measurements. The OD600 and the fluorescence (Ex: 485 nm; Em: 525 nm) are measured. The volume in the cavities is 200 μl after addition of all inductors.
For the analysis, the curves were fitted empirically with equation 1 in order to quantitatively determine the half-maximum time c or the slope d, for example.

E. coli = assay: G-GECO1 single-cell fluorescence microscopy in a microfluidic cultivation chamber (Example 11); conditions: for G-GECO1 fluorescent signal after expression: pCTRL2.T7.100 constructs, 0.5 mM IPTG
Procedure: Colonies of BL21(DE3) on LB agar plates from 1. were picked and cultivated in culture tubes with 2 ml of LB medium and the necessary antibiotics overnight for about 16 h at 37° C. and 180 rpm.
After the cultivation of individual clones from 2. overnight, the cells were transferred to fresh sterile-filtered LB medium, the OD600 of the precultures was 20 adjusted to 0.1, and subsequently grown at 37° C. for a period of 3 h up to an OD600 of 2.
For the cultivation and functional fluorescence-microscopic examination of the cells in a microfluidic cultivation chamber, it was possible to use a previously published microfluidic chip design (see Supplementary FIG. 5 in Nature Communications, 2020, 11, 2746).
After the microfluidic chip was flooded with LB medium, the cells were added and the flow rate through the microfluidic chip was adjusted to 1 μl/min. The cells were left in the microfluidic chip at 37° C. for 3 h, so that they were able to collect and grow accordingly in the cultivation chambers.
Thereafter, the expression of G-GECO1 was induced by a change to LB medium with 25 mM sodium propionate, pH 8.0, at 30° C. for 2 h.
Subsequently, the nanopores were then induced by a change to LB medium with 0.5 mM IPTG, and the development of the fluorescent signal was measured over 16 h.
The fluorescent signal was measured by means of a fluorescence microscope at 30° C. in intervals of 3 minutes. A transmitted-light image and then a fluorescence image (Ex: 488 nm; Em: 504-539 nm) in the form of a Z-stack were taken each time. From the induction of G-GECO1, a flow rate of 4 μl/min was used.
For the analysis, the entire cells from a single cultivation chamber (shown by way of example in FIG. 23) were analyzed with the aid of image analysis software (Fiji ImageJ 1.51; Nature Methods, 2012, 9, 676-82) and the fluorescence in relative fluorescence units (RFU) was plotted against the time (FIG. 24). Based on the curve of the fluorescent signal, detailed statements about the cell integrity or the outflow and the bleaching behavior of the sensor can then be made.

Molecule | Comment: effect on pore formation [2] | Slope [d] [2] | Half-maximum time [c] [2] | also measured
HokB: Pore-forming membrane peptide; forms part of a bacterial efflux or toxin/antitoxin system (MKHNPLVVCLLIICITILTFTLLTRQTLYELRFRDGDKEVAALMACTSR; listed as Escherichia coli) |  |  |  | iGluSNFr fluorescent signal after co-expression (L-Glu outflow) [1]: reduction in the fluorescence
B1 |  |  |  | iGluSNFr fluorescent signal after co-expression (L-Glu outflow) [1]: reduction in the fluorescence
B2 | Accelerating | 6.727 | 187.4 | 
B3 | Accelerating | 4.908 | 166.1 | 
B4 | Inhibitory | 22.49 | 304.1 | 
B5 | Accelerating | 6.835 | 172.3 | 
B6 | Inhibitory | 28.25 | 483.1 | 
B7 | Inhibitory | 47.62 | 358.7 | 
B8 |  |  |  | cell division after expression (E. coli): stop quickly; cellular integrity measured at the form of the cells (E. coli): remains intact over a comparatively long period of time; G-GECO1 fluorescent signal after expression (E. coli): increase quickly
B9 |  |  |  | cell division after expression (E. coli): stop quickly; time window before loss of cellular integrity or outflow of the sensor (E. coli): 30 min; time within which the fluorescent signal decreases again (E. coli): ≤ 30 min; G-GECO1 fluorescent signal after expression (E. coli): increase quickly
B10 |  |  |  | iGluSNFr fluorescent signal after co-expression (L-Glu outflow) [1]: reduction in the fluorescence
